Reference: patent US20230069418A1 (XIAMEN INNODX BIOTECH, published 2023)

Target: T1, polypeptide S29 (HBcAg-aa141-aa154) (hepatitis B virus)
T1 peptide: STLPETTVVRRRGR
Assay: indirect ELISA on coated peptide, antibody 1 ug/mL; positive if measured/background > 5

B1: 2A7 monoclonal antibody (antibody, V domains shown)
VH: QVQLQQPGAELVKPGASVKLSCKASGYTFTRYWMHWVMQRPGQDLEWIGEINPINGRTNYNEKFRRKATLTVDKSSSTVYIQFSSLTSEDSAVYFCTREGYRNDYYYAMDFWGRGTSVTVSS
VL: DIQMTQTSSSLSASPGDRVTISCRASQGINNYLNWYKQKTDGTFKLLIYYTSYLHSGVPSRFSGRGSGTDYSLTISNLEPEDVATYYCQQYGKLPWTFGGGTKLEIK
notes: also called HBc-2A7; 2A7-21
binding result: binds
